Assays:
[1] = molecular target: Recombinant CHIKV E2 ectodomain protein (corresponding to the CHIKV-LR2006 strain) (Chikungunya virus strain LR2006); assay: BLI competition, E2 ectodomain on anti-Penta-His tip; first mAb 5M16
[2] = molecular target: Recombinant CHIKV E2 ectodomain protein (corresponding to the CHIKV-LR2006 strain) (Chikungunya virus strain LR2006); assay: BLI competition, E2 ectodomain on anti-Penta-His tip; first mAb CHK-88 (f4)
[3] = molecular target: Recombinant CHIKV E2 ectodomain protein (corresponding to the CHIKV-LR2006 strain) (Chikungunya virus strain LR2006); assay: BLI competition, E2 ectodomain on anti-Penta-His tip; first mAb CHK-265 (f3)
[4] = molecular target: Recombinant CHIKV E2 ectodomain protein (corresponding to the CHIKV-LR2006 strain) (Chikungunya virus strain LR2006); assay: BLI competition, E2 ectodomain on anti-Penta-His tip; first mAb 1H12
[5] = molecular target: Recombinant CHIKV E2 ectodomain protein (corresponding to the CHIKV-LR2006 strain) (Chikungunya virus strain LR2006); assay: BLI competition, E2 ectodomain on anti-Penta-His tip; first mAb 9D14
[6] = molecular target: Recombinant CHIKV E2 ectodomain protein (corresponding to the CHIKV-LR2006 strain) (Chikungunya virus strain LR2006); assay: BLI competition, E2 ectodomain on anti-Penta-His tip; first mAb 3A2
[7] = molecular target: Recombinant CHIKV E2 ectodomain protein (corresponding to the CHIKV-LR2006 strain) (Chikungunya virus strain LR2006); assay: BLI competition, E2 ectodomain on anti-Penta-His tip; first mAb 1O6
[8] = molecular target: Recombinant CHIKV E2 ectodomain protein (corresponding to the CHIKV-LR2006 strain) (Chikungunya virus strain LR2006); assay: BLI competition, E2 ectodomain on anti-Penta-His tip; first mAb CHK-141 (f2)
[9] = molecular target: Recombinant CHIKV E2 ectodomain protein (corresponding to the CHIKV-LR2006 strain) (Chikungunya virus strain LR2006); assay: BLI competition, E2 ectodomain on anti-Penta-His tip; first mAb 5O14
[10] = molecular target: Recombinant CHIKV E2 ectodomain protein (corresponding to the CHIKV-LR2006 strain) (Chikungunya virus strain LR2006); assay: BLI competition, E2 ectodomain on anti-Penta-His tip; first mAb 4B8
[11] = molecular target: Recombinant CHIKV E2 ectodomain protein (corresponding to the CHIKV-LR2006 strain) (Chikungunya virus strain LR2006); assay: BLI competition, E2 ectodomain on anti-Penta-His tip; first mAb 5N23
[12] = molecular target: Recombinant CHIKV E2 ectodomain protein (corresponding to the CHIKV-LR2006 strain) (Chikungunya virus strain LR2006); assay: BLI competition, E2 ectodomain on anti-Penta-His tip; first mAb CHK-84 (f1)
[13] = molecular target: Recombinant CHIKV E2 ectodomain protein (corresponding to the CHIKV-LR2006 strain) (Chikungunya virus strain LR2006); assay: BLI competition, E2 ectodomain on anti-Penta-His tip; first mAb 5F10 (r1)
[14] = molecular target: Recombinant CHIKV E2 ectodomain protein (corresponding to the CHIKV-LR2006 strain) (Chikungunya virus strain LR2006); assay: ELISA, E2 ectodomain coated

percent binding of competing mAb in presence of first mAb [1]	percent binding of competing mAb in presence of first mAb [2]	percent binding of competing mAb in presence of first mAb [3]	percent binding of competing mAb in presence of first mAb [4]	percent binding of competing mAb in presence of first mAb [5]	percent binding of competing mAb in presence of first mAb [6]	percent binding of competing mAb in presence of first mAb [7]	percent binding of competing mAb in presence of first mAb [8]	percent binding of competing mAb in presence of first mAb [9]	percent binding of competing mAb in presence of first mAb [10]	percent binding of competing mAb in presence of first mAb [11]	percent binding of competing mAb in presence of first mAb [12]	percent binding of competing mAb in presence of first mAb [13]	Substance	OD [14]
84%	3%	2%	52%	105%	95%	85%	86%	85%	92%	98%	92%	-3%	CHK-265 (antibody)	–
–	–	–	–	–	–	–	–	–	–	–	–	–	murine CHK-152 (antibody)	< 0.1 od

Reference: patent US20180079802A1
